Laboratory results reported in patent US20240368267A1 (KODIAK SCIENCES, published 2024).

target: T1, human IL-6 (human, UniProt P05231 30-212); assay: SPR (Biacore T200), antibody from cell supernatant captured on Protein A, IL-6 flowed over, 37 C
T1 construct: also called interleukin-6
Method: Those four positions were selected based on their tolerance for mutations as observed in bacterial and mammalian screens. […] These cultures were centrifuged and supernatants containing secreted antibodies were harvested and diluted in HBS-EP+ running buffer (1:20 ratio).
Antibodies were captured on a Protein A chip (GE) by injecting 1:20 cell supernatant dilutions at 10 μL/min for 60 seconds. […] The sensor chip was regenerated by a 60 seconds injection of 10 mM Glycine pH 1.7 at the flow rate of […]. […] For this setup, 1 μg/mL of purified antibody was injected over a Protein A chip at 10 μL/min for 25 seconds. […] The sensor chip was regenerated by a 60 seconds injection of 10 mM Glycine pH 1.7 at flow rate of 50 μL/min. Data analysis for supernatant and purified samples were performed using BIAevaluation software (GE). All sensorgrams were double reference subtracted and fit using a 1:1 Langmuir binding model.

T1 sequence (P05231 30-212 limits assumed): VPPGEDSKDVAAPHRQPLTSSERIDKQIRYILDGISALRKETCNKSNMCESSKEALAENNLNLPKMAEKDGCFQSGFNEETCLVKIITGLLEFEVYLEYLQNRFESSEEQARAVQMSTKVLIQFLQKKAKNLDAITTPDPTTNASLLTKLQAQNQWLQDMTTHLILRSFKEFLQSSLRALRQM

Binder | Kd [nM] | koff [s⁻¹] | kon [M⁻¹ s⁻¹]
anti-IL-6 antibody, heavy chain I51E, G66D / light chain WT (antibody, human IgG1, V domains shown, Derived as m2; Engineered human IgG1) VH: EVQLVESGGGLVQPGGSLRLSCAASGFTFSPFAMSWVRQAPGKGLEWVAKESPGGSWTYYSDTVTDRFTFSLDTSKSTAYLQMNSLRAEDTAVYYCARQLWGYYALDIWGQGTLVTVSS VL: DIQLTQSPSSLSASVGDRVTITCSASISVSYMYWYQQKPGKAPKLLIYDMSNLASGVPSRFSGSGSGTDFTLTISSLQPEDFATYYCMQWSGYPYTFGQGTKVEIK | 1.01 | 0.00076 | 754000
anti-IL-6 antibody, heavy chain I51F, G66D / light chain WT (antibody, human IgG1, V domains shown, Derived as m2; Engineered human IgG1) VH: EVQLVESGGGLVQPGGSLRLSCAASGFTFSPFAMSWVRQAPGKGLEWVAKFSPGGSWTYYSDTVTDRFTFSLDTSKSTAYLQMNSLRAEDTAVYYCARQLWGYYALDIWGQGTLVTVSS VL: DIQLTQSPSSLSASVGDRVTITCSASISVSYMYWYQQKPGKAPKLLIYDMSNLASGVPSRFSGSGSGTDFTLTISSLQPEDFATYYCMQWSGYPYTFGQGTKVEIK | 2.24 | 0.00305 | 1.36e+06
anti-IL-6 antibody, heavy chain I51G, G66D / light chain WT (antibody, human IgG1, V domains shown, Derived as m2; Engineered human IgG1) VH: EVQLVESGGGLVQPGGSLRLSCAASGFTFSPFAMSWVRQAPGKGLEWVAKGSPGGSWTYYSDTVTDRFTFSLDTSKSTAYLQMNSLRAEDTAVYYCARQLWGYYALDIWGQGTLVTVSS VL: DIQLTQSPSSLSASVGDRVTITCSASISVSYMYWYQQKPGKAPKLLIYDMSNLASGVPSRFSGSGSGTDFTLTISSLQPEDFATYYCMQWSGYPYTFGQGTKVEIK | 0.428 | 0.000581 | 1.36e+06
anti-IL-6 antibody, heavy chain I51L, G66D / light chain WT (antibody, human IgG1, V domains shown, Derived as m2; Engineered human IgG1) VH: EVQLVESGGGLVQPGGSLRLSCAASGFTFSPFAMSWVRQAPGKGLEWVAKLSPGGSWTYYSDTVTDRFTFSLDTSKSTAYLQMNSLRAEDTAVYYCARQLWGYYALDIWGQGTLVTVSS VL: DIQLTQSPSSLSASVGDRVTITCSASISVSYMYWYQQKPGKAPKLLIYDMSNLASGVPSRFSGSGSGTDFTLTISSLQPEDFATYYCMQWSGYPYTFGQGTKVEIK | 0.386 | 0.000733 | 1.9e+06
anti-IL-6 antibody, heavy chain I51Q, G66D / light chain WT (antibody, human IgG1, V domains shown, Derived as m2; Engineered human IgG1) VH: EVQLVESGGGLVQPGGSLRLSCAASGFTFSPFAMSWVRQAPGKGLEWVAKQSPGGSWTYYSDTVTDRFTFSLDTSKSTAYLQMNSLRAEDTAVYYCARQLWGYYALDIWGQGTLVTVSS VL: DIQLTQSPSSLSASVGDRVTITCSASISVSYMYWYQQKPGKAPKLLIYDMSNLASGVPSRFSGSGSGTDFTLTISSLQPEDFATYYCMQWSGYPYTFGQGTKVEIK | 0.336 | 0.000648 | 1.93e+06
anti-IL-6 antibody, heavy chain I51D, G66D / light chain WT (antibody, human IgG1, V domains shown, Derived as m2; Engineered human IgG1) VH: EVQLVESGGGLVQPGGSLRLSCAASGFTFSPFAMSWVRQAPGKGLEWVAKDSPGGSWTYYSDTVTDRFTFSLDTSKSTAYLQMNSLRAEDTAVYYCARQLWGYYALDIWGQGTLVTVSS VL: DIQLTQSPSSLSASVGDRVTITCSASISVSYMYWYQQKPGKAPKLLIYDMSNLASGVPSRFSGSGSGTDFTLTISSLQPEDFATYYCMQWSGYPYTFGQGTKVEIK | 2.69 | 0.00267 | 991000
anti-IL-6 antibody, heavy chain I51P, G66D / light chain WT (antibody, human IgG1, V domains shown, Derived as m2; Engineered human IgG1) VH: EVQLVESGGGLVQPGGSLRLSCAASGFTFSPFAMSWVRQAPGKGLEWVAKPSPGGSWTYYSDTVTDRFTFSLDTSKSTAYLQMNSLRAEDTAVYYCARQLWGYYALDIWGQGTLVTVSS VL: DIQLTQSPSSLSASVGDRVTITCSASISVSYMYWYQQKPGKAPKLLIYDMSNLASGVPSRFSGSGSGTDFTLTISSLQPEDFATYYCMQWSGYPYTFGQGTKVEIK | 387 | 0.00612 | 15800
anti-IL-6 antibody, heavy chain I51H, G66D / light chain WT (antibody, human IgG1, V domains shown, Derived as m2; Engineered human IgG1) VH: EVQLVESGGGLVQPGGSLRLSCAASGFTFSPFAMSWVRQAPGKGLEWVAKHSPGGSWTYYSDTVTDRFTFSLDTSKSTAYLQMNSLRAEDTAVYYCARQLWGYYALDIWGQGTLVTVSS VL: DIQLTQSPSSLSASVGDRVTITCSASISVSYMYWYQQKPGKAPKLLIYDMSNLASGVPSRFSGSGSGTDFTLTISSLQPEDFATYYCMQWSGYPYTFGQGTKVEIK | 0.348 | 0.000529 | 1.52e+06

Further binders by falling Kd, results first:

Kd [nM] | koff [s⁻¹] | kon [M⁻¹ s⁻¹] | Binder
0.327 | 0.000576 | 1.76e+06 | anti-IL-6 antibody, heavy chain I51A, G66D / light chain WT (antibody, human IgG1, V domains shown, Derived as m2; Engineered human IgG1) VH: EVQLVESGGGLVQPGGSLRLSCAASGFTFSPFAMSWVRQAPGKGLEWVAKASPGGSWTYYSDTVTDRFTFSLDTSKSTAYLQMNSLRAEDTAVYYCARQLWGYYALDIWGQGTLVTVSS VL: DIQLTQSPSSLSASVGDRVTITCSASISVSYMYWYQQKPGKAPKLLIYDMSNLASGVPSRFSGSGSGTDFTLTISSLQPEDFATYYCMQWSGYPYTFGQGTKVEIK
0.291 | 0.000402 | 1.38e+06 | anti-IL-6 antibody, heavy chain I51K, G66D / light chain WT (antibody, human IgG1, V domains shown, Derived as m2; Engineered human IgG1) VH: EVQLVESGGGLVQPGGSLRLSCAASGFTFSPFAMSWVRQAPGKGLEWVAKKSPGGSWTYYSDTVTDRFTFSLDTSKSTAYLQMNSLRAEDTAVYYCARQLWGYYALDIWGQGTLVTVSS VL: DIQLTQSPSSLSASVGDRVTITCSASISVSYMYWYQQKPGKAPKLLIYDMSNLASGVPSRFSGSGSGTDFTLTISSLQPEDFATYYCMQWSGYPYTFGQGTKVEIK
0.232 | 0.000415 | 1.79e+06 | anti-IL-6 antibody, heavy chain I51T, G66D / light chain WT (antibody, human IgG1, V domains shown, Derived as m2; Engineered human IgG1) VH: EVQLVESGGGLVQPGGSLRLSCAASGFTFSPFAMSWVRQAPGKGLEWVAKTSPGGSWTYYSDTVTDRFTFSLDTSKSTAYLQMNSLRAEDTAVYYCARQLWGYYALDIWGQGTLVTVSS VL: DIQLTQSPSSLSASVGDRVTITCSASISVSYMYWYQQKPGKAPKLLIYDMSNLASGVPSRFSGSGSGTDFTLTISSLQPEDFATYYCMQWSGYPYTFGQGTKVEIK
0.191 | 0.000362 | 1.89e+06 | anti-IL-6 antibody, heavy chain I51S, G66D / light chain WT (antibody, human IgG1, V domains shown, Derived as m2; Engineered human IgG1) VH: EVQLVESGGGLVQPGGSLRLSCAASGFTFSPFAMSWVRQAPGKGLEWVAKSSPGGSWTYYSDTVTDRFTFSLDTSKSTAYLQMNSLRAEDTAVYYCARQLWGYYALDIWGQGTLVTVSS VL: DIQLTQSPSSLSASVGDRVTITCSASISVSYMYWYQQKPGKAPKLLIYDMSNLASGVPSRFSGSGSGTDFTLTISSLQPEDFATYYCMQWSGYPYTFGQGTKVEIK
0.169 | 0.000202 | 1.2e+06 | anti-IL-6 antibody, heavy chain I51R, G66D / light chain WT (antibody, human IgG1, V domains shown, Derived as m2; Engineered human IgG1) VH: EVQLVESGGGLVQPGGSLRLSCAASGFTFSPFAMSWVRQAPGKGLEWVAKRSPGGSWTYYSDTVTDRFTFSLDTSKSTAYLQMNSLRAEDTAVYYCARQLWGYYALDIWGQGTLVTVSS VL: DIQLTQSPSSLSASVGDRVTITCSASISVSYMYWYQQKPGKAPKLLIYDMSNLASGVPSRFSGSGSGTDFTLTISSLQPEDFATYYCMQWSGYPYTFGQGTKVEIK
0.00369 | 6.68e-06 | 1.81e+06 | anti-IL-6 antibody, heavy chain I51V, G66D / light chain WT (antibody, human IgG1, V domains shown, Derived as m2; Engineered human IgG1) VH: EVQLVESGGGLVQPGGSLRLSCAASGFTFSPFAMSWVRQAPGKGLEWVAKVSPGGSWTYYSDTVTDRFTFSLDTSKSTAYLQMNSLRAEDTAVYYCARQLWGYYALDIWGQGTLVTVSS VL: DIQLTQSPSSLSASVGDRVTITCSASISVSYMYWYQQKPGKAPKLLIYDMSNLASGVPSRFSGSGSGTDFTLTISSLQPEDFATYYCMQWSGYPYTFGQGTKVEIK
